Data from paper PMC11723922.
Like-named read-outs stand apart in the source and are kept apart here.

Experiments:
Experiment in all cases: SPR; BIAcore X100; biotinylated Avi-tagged TβRI or TβRII captured on neutravidin-coupled CM-5 chip (max 150 RU); full-length TGM injected as twofold dilution series; HBS-EP, 25 mM HEPES, 150 mM NaCl, 0.005% P20, pH 7.4; 100 µL/min; 1:1 kinetic model
[1] = biological target: Biotinylated Avi-tagged human TβRI extracellular domain (human) (UniProt P36897)
[2] = biological target: Biotinylated Avi-tagged human TβRII extracellular domain (human) (UniProt P37173)
Chain of Biotinylated Avi-tagged human TβRII extracellular domain (human) (P37173 23-166): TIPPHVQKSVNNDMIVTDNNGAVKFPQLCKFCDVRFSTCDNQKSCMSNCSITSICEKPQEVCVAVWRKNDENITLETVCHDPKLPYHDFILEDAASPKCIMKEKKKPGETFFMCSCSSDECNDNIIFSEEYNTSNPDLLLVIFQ

[3] = biological target: Biotinylated Avi-tagged human TβRI extracellular domain (human) (UniProt P36897); remark: listed apart in the source

Chain of Biotinylated Avi-tagged human TβRI extracellular domain (human) (P36897 34-126): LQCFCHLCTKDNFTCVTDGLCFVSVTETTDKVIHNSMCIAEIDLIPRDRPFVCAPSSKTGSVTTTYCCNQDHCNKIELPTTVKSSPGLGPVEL

Substance	Kd [1] [nM]	Kd [2] [µM]	Kd [3] [nM]
TGM1 full-length (D1-5), recombinant (natural protein)	90		
TGM4 full-length (D1-5), recombinant (natural protein)	5	116	3 to 5
